# In the DeepSol protein solubility set:
# Test: soluble on expression in E. coli; label from the status in PepcDB or PDB records
row,Sequence,soluble on expression in E. coli
1,MSLNRIILIGNGFDLAHGLPTRYEDFINWYWEKRVDSFIGNLTPISEDCLCSIKITSDNYNRCWNVFAFCLPKFFNKPSGKEIIDSIANDSKSFELSLSPFFFNICTCIETKGWVDIEKEYYDLLRNAIINPDNCNYTISEINKQLHYIQGLLAQYLSSITTDNIKCNKEIQRQIYGNIRKDDVSISQLQVYYDYVDHLIQQDNVYQQLLCRYGYESSDRHFMAEDIKQLRKQFVGSSEIEEIYLKDLIFPENIVLLNFNYTEVADKYGCLKVASTNHIHGDLNNPDSIIFGYGDELDEDYRDFLKQSDNECLRNIKSIKYLESGKYRNLLQFIESAPYQVYIMGHSCGNSDRTLLNTLFEHKNCVSIKPYYYQKDDGSDNYLEIAQNICRNFTDMKLMRDRVVNKMFCEPLPQYIKEGHHHHHH,soluble
2,MSLNRIILLDRDGVINTDSINYIKNVDELIIIPDSIIAIARLSAAGYKIGVATNQSGVSRGLYSEDDLSAIHCKLREVLAEAGGQIDALEYCIHLPEDNCFCRKPQPGMLKALAEKLNCSLDSVPFVGDRVSDIQAALAVGAQPIIVLSNMTDMSELAQYPKVPIYNSLLQYVNQLLLEGHHHHHH,soluble
3,MSLNRKTPKTTDGLMRHIRDNKGIQINGSTEKNQLRNIGYFHGFKGYNFFLNKEEELNFEKFSELHALYSFDTEIKNLFYKHVMFCETAIKNRLLEIVCVNSGFDLDSLFQKSLTYYKSYSPGSSKYKKHLKNTTRLRRDIYDMIHEHCNSKPYIYHYIHQDRTVPLYAVFELFTLGNLVFFTRCMSQNLNIEAQKQLKLYSPAFDQSKDILGDIIDCMKGLRNAIAHNGVLYDCRFKTGETSNRLKEYLAVKMDIHNLDFDRIIDYLILLILICSGLSYSKAELQRIIRQFEQNLDFLRSKISESTYDKIIGVRARPKLRSLKNFINNLDFYLKTDEGHHHHHH,soluble
4,MSLNSIQHIRKAEIHVHLEATIGPDLCRKFAKRNKVTLTDDIFGSQYAYAWDDFYDFIKKYDLVTSVIHTPEDYRELTYSYLKECAKNNVLYVEAMISSTHAKLKGMSYHSFLEGVAEGSKQAEDEFGIISKYIMNGIRHLGPESVQKTAEEVLEFPHKDLVGFGLAGDELHFPPKLFTKTFDMLKEANFPITVHAGEWDGPENIRHAINLLHPTRLGHGVRSIEDPDLVKEIIDKDIILETCPTSNIATKIYEDYKSHPVKTLFDQGVKVTVNSDDPPFFNATIQGEYKVMEDLGLNEKELTSLTHNAIKYSFCDEENKNELLAKLNEGHHHHHH,soluble
5,MSLNTGINCPFDCGLCARHRSHTNLLNIVLTNRCNLSCWYCFFYAREGEPVYEPTLEQIRMMLRNAKKENPIGANAVQFTGGEPTLRDDLIEIIKIAKEEGYDHVQLNTDGIRLAFEPELVKKIREAGVNTLYLSYDGMTPQTNWKNHWEIPLIFENVRKAGGPGIVLVPTLIRNVNDHEAGAIINFGLNHLDIVRGVNFQPISLVGRVPKKERQRFRITIAGAIKKIEEQTNGAISRDDWYPIPIAGYIARFFEAFTGKHYYMTSHYACGAATYVFLDKEEKKVIPIPRFIDVEGFVEFLVEKAEEIERARFKGLAKLKAIGETVFIKFKQFYDEKYAPKGLDVLGLIKNAFMHGNYDALGQFHTKTLFLGMMHFMDEYNYDVERVERCVIHYAMPDGRIVPFCTFNVIPEIYRDKVQRQFSYSWEEWKKLHPDWDYKKDKYFRTREFVEKMKNSELYRKTYIDIVNYFEEGHHHHHH,soluble
6,MSLNVLHVASECNPFFKTGGLADVLGSLPKALIKQGINVSVILPKYGHLSDEWQNQLTLKKSFTVSVTWRNQYCGLEQFVDQGVTYYFIDNEYYFKRERLYGYLDEAERFTFFNHAVLSSLPFLDESPDLIHCHDWQSGLIPAYMKTGSVENPVPTVFTIHNLRYQGAFPPDVFRELLHFAPEHFAGLEMDGAINFLKGALVHSDRVTTVSPTYAQEIQTPAFGEGLHGLLHQERGKTRGILNGIDLEDFDPKTDPHVTYPYKHNQMEKRKNKQVIQRLFELPERKDIPLIAMVSRLVEEKGVPLLTQIAGELVTTENVQLAILGTGDPSLEDQLHHLASLHPHQISFKCVFAEPLARKLYAGADLFIMPSRFEPCGLSQMISLRYETVPIVRETGGLYDTIQSYNEEIGEGNGFSFTHYNAHDFLYTIKRALRFYRTEKEWENLLLNIYSSEVGWDVSAKQYTALYEEILGKRKVEAEGHHHHHH,not soluble
7,MSLPAKRKLTMRHIRQMLRLAGSGTSSREIAVMLGIARSTVQDNLKRAAMAGLSWALASGLTDDVLEAKLFVHPGVKRGQRLRQEPDWGPLSIELKKPGVTLLILWEEYRSAHPDGYGYSRFCELFRGFEKRLSPTMRQEHIAGDKVFVDYSGKKVPIVDRKTGEIREAELFLGVLGASSYCTRGRSVHLGELLRRAWIFQHLGNREGHHHHHH,not soluble
8,MSLPEYDPDKYRGIDVSYVNICMRRAWLSLHEIFYVRDSYYVSDGAYLADINRKGLPISTGRSRMDNVQIHKDFIMVHEYKRGYKMIKADKMQILHYMYIIKLKENLDIKGKLHFLGSKKVVDIELNDENLNELYKSYENIDKLKDMAKPPEPVRNYFCVHGCSYSDFCWCEGHHHHHH,soluble
9,MSLPHLSLADARNLHLAAQGLLNKPRRRASLEDIPATISRMSLLQIDTINIVARSPYLVLFSRLGNYPAQWLDESLARGELMEYWAHEACFMPRSDFRLIRHRMLAPEKMGWKYKDAWMQEHEAEIAQLIQHIHDKGPVRSADFEHPRKGASGWWEWKPHKRHLEGLFTAGKVMVIERRNFQRVYDLTHRVMPDWDDERDLVSQTEAEIIMLDNSARSLGIFREQWLADYYRLKRPALAAWREARAEQQQIIAVHVEKLGNLWLHADLLPLLERALAGKLTATHSAVLSPFDPVVWDRKRAEQLFDFSYRLECYTPAPKRQYGYFVLPLLHRGQLVGRMDAKMHRQTGILEVISLWLQEGIKPTTMLQKGLRQAITDFASWQQATRVTLGRCPQGLFTDCRTGWEIDPVA,not soluble
10,MSLPNRLLITNASIAKMDEPDDGYGLMMHAALLIQDEKIEWLGSVSDIPAGLGDPEELDACGRLLTPALIDCHTHIVHGGNRAREFEMRLEGASYEEIARAGGGIISTVTATRETDEAALLQDALKRADSLIAEGVSLIEIKSGYGLDVETELKMLRVARAIERERSVRVVTSFLGAHAVPKGADADFYIDKVCIPALEAAHKEGLVDAVDGFCEGIAFDTVQMGRLFERARQLDIPVKLHAEQLSNIGGTKLAASYNALSVDHVEYADKTDIAAMAKAGSVAVLLPGAFYTLHETQKPLVEAFRSESVPMAVATDWNPGSSPMGSLLLAMNMSCTLFGLTPVEALAGTTRNAARALGLKDCGIVAPGKRADLAIWDVLEPAELSYRFGVNPLHRRIFGGRLEGHHHHHH,soluble
11,MSLQDIKDITLRQFGTGVSNLNEVAQKVKEDLGFTLTMTALDSDAVTQRAATQPDSFDIADIEYWICKKVWPTGNLQAMDTSKIKNYDKIVGIFRSGKLTPESTIAQGTAPHTVGFTSGPGGTDFVQEESGWMTLIPTIYNADTLGIRPDLIGRPIESWTELLNPEFKGKASILDISSIGIMDAAMVCEAMGEITYGDKGNMTREEIDRTMAIFTEAKKAGQFRAFWKTFDESVNLMASGEVVIQSMWSPAITAVKSRGIPCVYQPLREGYRSWGGGIGLSARLDGLALEAAYEYINWYLSGWVGGFLMRQGYYSAVPETSKEFMSENEWGYWFEGKPATDTITNPQGQAMAQAGEVRDGGSFEERMGRVACWNSVMDENQYMVRKWNEFIAAEGHHHHHH,not soluble
12,MSLQIDEVSKKLNISKSMIRYYEEKGLINISRNQNNYREFNQTVYTTLKLIKDLKRLNLSLEEIKYIVNLFNKPTSKECNIQSTKYLDRIIKDYKRSINEQINILNRLEQVKELSQDMKFEENKTEILNMLAGVKEYDEGHHHHHH,not soluble
13,MSLQIKFWPQDLKLAHTWTIASSVTSGSDVTSVGIVQLTDRDGTVGLGEAAPARRYNESTPGSLDFIAKVDATKLSFDNIEASMKYVESLASGQFAAKSAINVALLDGAARKAGKPIYDLLGLGFRNNHHVTSFSIGIDKADVIRKKVLAAEQYPVLKLKVGAADDKANLAALREAAPQKWVRVDANEGWKTKEHALEMIEWLAQDKFIQYIEQPMPADSNPKDIAWLKARSPLPLFGDESYHTAKDVDHCAECYHGVNVKLCKTGGISNAYEALQVARKAGLKTMIGCMIETSILISAAAHLAELCDYLDIDGNLLTTNDPYLGVTAEKGLLSFASAPEKLGLRVRAKEGHHHHHH,soluble
14,MSLQIKVSQFGLNLAHAWATAASSAKKSRIVTFVKLTSSDGAFGFGESAPSSRYGETLETVTAFLAKIDPKQLSFDDVPGSMAYLDKLSSGDFAAKAAVNIALWDGAGKKARKPIYDLLGLGFTENKHITSYTIGIDAPEIIRQKVLEAEQYPVLKLKVGDKNDRETMAILRSIAPAKTVRIDGNEGWKTKEEALKNIEWFAQDKNIEFVEQPMPADSNPKDLAWLKERSPLPLYADESFFAVADVSLCVDCFHGVNVKLVKTAGISGAYEALQAAKKAGLKRMIGCMVESSVLIGAGAHLAELADHLDIDTNLLITNDPFQGTTAEKGIISFAKASEPCGLRVKATPSFVMEGHHHHHH,soluble
15,MSLQILTRKMPGQFKVGCMDLMIEEAAGSGLFMRLFFPTDSEITGPSSLPVWIPRPEYAYGVGEYLGHSPHQMDLISSLVIGDKRVDCIDNAQLSTKSDKWPVLVFSHGLGGSRTFYSTYCTSLASHGYVVAAVEHRDSSACWTYKLVEKNGTLVEKPMKIKLVDRNDKDQFKIRNEQVGKRAEECAKAVKILEQLDSGNVKDKVIIGNNANLEFFKNKLLTTTASIIGHSFGGATSIASSSSDFQKAIVLDGWMYPLDQNQQEQAKQPIMFLNVGDWQWNENLEVMRKILPNNEGNILLTLSGAVHQSFTDFPFVFPNWLAKQFGVHGPTEPYLCMQSAIELTLSFLKDGKEGHHHHHH,not soluble
16,MSLQKEEILKLPISYKNIRLIRLNLPQKEQFVSGIGVRNSRKALIIEWEDDNGTKGYGECSCRPDPYYSDEFIEGAIALVNQFIVPFLKQNQTFGDLLKLLDKIRGWNFTKAAVEMAALQVIEQNTGKSPFQLLQNKPLAHVPVGISLGLYTDVDRMKKVVKNALETGYKRLKFKISPKVRVDFFEEINPMLFEADTFVSFDANGSFGENDLDIFHYFANTYQSMIEQPFAPTRFDILSKVKKEHPEIYICYDEEIKSIGDLIKLHHLGMLDEVNLKVGRVGGVMKSIEIIQYCAEHNIPCWIGGMFETGIGRTLNLRMASYLPNARAHDLSPSDRYFLEDIVQPNVQMNNGLVNMESLKNCTIQPNLIDKYTIDQKTLTRICEGHHHHHH,soluble
17,MSLQKLAFSYVRFSSLKQRHGDSLKRQTDMVANWLLANPEYKLSGETSYQDLGKSGFSGAHLDNAFGRLLAAIENGAIPKGSAILIEQIDRAGRMEPMEMLPLLSRIVNAGVDLVTLDDGITYDRASVNSNHLFLLVAKVQQAHQYSDSLSRRLRAAYQTKRAKAAAGEGATRRMPLWIRDGKLRDDIAPFVTQVFEDYAAGIGERRILGRLKGQHPDFETISPSTFRRWLRNPVAVGRWNDIEDVWPAVVSKELWFRVQKRLTDGVKPKAASSKYLLSGLVKCARCGKNYCVGGQKGALTMLCVSRHRFGSGAGGCTNKRSIPYAVFDFIRSQTAHAALVRASQSQNLTASEKRQIEIDGELIELRKQSSHAAEGLVRYGMVKEITDVLDRVTDQIDRLEKERVMLQAVPAPATLDDMIDVENDLLDDDIVKLNALLQGVGYEMVVDDRTIVVCEASVFSTLQSQTYRYIGADRVTGTYKVTANDEVLHHLPNLDSKVQQDEYAEFLKKEARYESGELKRDEFRFNLETGEINREGHHHHHH,not soluble
18,MSLQKNGYRIQFTSSRIRDLMYRTTFDPKKMDGDIILNLSLIDKKDLDDVLGIFKMVISSGLSVTPYVKVISEGESIGDMTIEKGKVGIGTVCSITIDGVLLKAGIPVNPKLGGVVQIRNGIPVRFTDVLTYVSTTVDPLEILMSQGITSVSEMLRTGSGKVLANLREAPMVARDEIESNLSDLLDAGFSGILEVGEPNTRVLDVPIERDHLGIVVIGGTNPMAVVQEYGIPIDTSAMSRLISFKEMSRIEDLVEGHHHHHH,soluble
